Results from PMC2577619.

Biological target: HIV-1 BaL envelope glycoprotein gp120 (head of the virion Env spike) (HIV-1 BaL)
Experiment: cryo-EM structure; cryoelectron tomography of vitrified AT-2-treated HIV-1 BaL virions in PBS; 300 kV, pixel 5.56 A; spike subvolumes (2,070 kept) aligned, classified into eight classes and averaged with missing-wedge compensation, no symmetry imposed; head and leg regions also aligned and classified separately

HIV-1 BaL envelope glycoprotein gp120 (head of the virion Env spike) (natural protein)
stoichiometry N: 3
